Article doi:10.1101/2020.09.14.294884 (bioRxiv, 2020)
Where no end group is shown, it is not given here.

Molecular target: T1, recombinant Psb28 (from pIVEXPsb28His) (T. elongatus, UniProt Q8DLJ8 2-116)
T1 sequence: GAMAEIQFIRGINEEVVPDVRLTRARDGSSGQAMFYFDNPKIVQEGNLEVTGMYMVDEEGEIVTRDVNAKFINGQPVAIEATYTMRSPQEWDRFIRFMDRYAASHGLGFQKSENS
Experiment: NMR titration

Kd: 53.92 ± 0.41 µM
koff: 10.1 ± 0.16 s⁻¹
B1: carboxy-terminal peptide from residues 480-499 of CP47 (peptide)
peptide: Ac-SGIDPELSPEQVEWGFYQKV
